The text below walks through data of patent US20200392227A1 (LYVGEN BIOPHARMA, published 2020).

For experiment [1], the target named is T1, human FcγRIIC expressed on CHO cells (human, UniProt P31995 43-323).
T1 construct: whole, on cells
T1 sequence (looked up): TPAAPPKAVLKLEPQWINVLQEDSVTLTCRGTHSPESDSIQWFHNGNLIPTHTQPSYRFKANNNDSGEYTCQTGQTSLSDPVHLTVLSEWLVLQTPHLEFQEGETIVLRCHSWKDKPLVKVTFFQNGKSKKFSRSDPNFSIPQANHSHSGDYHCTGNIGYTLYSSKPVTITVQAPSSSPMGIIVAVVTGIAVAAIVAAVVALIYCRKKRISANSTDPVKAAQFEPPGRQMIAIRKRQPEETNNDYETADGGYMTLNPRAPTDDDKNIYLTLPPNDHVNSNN
Briefly: FACS, CHO cells expressing FcγRIIC. The procedure: FIGS. 1A-1W are charts showing binding activity of various IgG variants as indicated to different types of Fcγ receptors expressed on CHO-K1 cells at the various concentrations as indicated. The concentrations of each IgG variant, from left to right, are 0 μg/ml, 0.3 μg/ml, 1 μg/ml, 3 μg/ml, and 10 μg/ml in FIGS. 1A-1C, 1E-J, 1L-1M, 1P-1R, and 1T-1V. For FIGS. 1D, 1K, 10, 1S, and 1w the bars, from left to right, correspond to the following concentrations of IgG variant: 0.3 μg/ml, 1 μg/ml, 3 μg/ml, and 10 μg/ml.
For FACS analysis of the IgG mutants' binding to different FcγRs, FcγR overexpressing CHO cells were harvested using trypsin-EDTA and were suspended in cold staining buffer (3% BSA in PBS). Test IgG mutants, which were diluted in staining buffer, were added into the cells. The mixture was incubated 4° C. for 2 hours, and then washed twice with cold staining buffer and re-suspended in PE-labeled anti-human IgG followed by incubation at 4° C. for 2 hours. The mixture was washed twice with staining buffer and re-suspended in 2% PFA in PBS for FACS.

Experiment [2] addresses T2, human FcRI protein (MednaBio, E1031) (human, UniProt P12314 16-288, limits assumed).
T2 construct: Bought; loaded on anti-penta-HIS biosensors; also called FcγRI
Put plainly: BLI. The procedure, abridged: (§1)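 Binding was measured by biolayer interferometry on an Octet Red96 System, with commercial human Fc receptor proteins loaded at 20 μg/mL onto anti-penta-HIS biosensors. Sensors were dipped into an 8-point 1:3 dilution series of test IgG starting at 300 nM in PBS with 0.1% BSA and 0.02% Tween-20. Fcγ receptor assays ran at pH 7.2 and FcRn assays at pH 6. Kd, kon and koff came from global fitting to a 1:1 binding model.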
(In general: BLI is a label-free optical method that tracks binding on a fibre tip over time.)

The target of experiment [3] is T3, human FcRIIIA-V158 protein (MednaBio, E1035) (human, UniProt P08637 17-208).
T3 construct: Bought; also called FcγRIIIA(V); FcgRIIIA(V)
Briefly: BLI. Summed up: as §1

Experiment [4] has as its target T4, human FcRn protein (MednaBio, E1032) (human, UniProt P55899 24-297; P61769 21-119).
T4 construct: Bought; assays at pH 6
Briefly: BLI. Summed up: as §1

Experiment [5] addresses T5, human FcRIIB/C protein (MednaBio, E1034) (human, UniProt P31994 43-217, limits assumed).
T5 construct: Bought as FcRIIB/C; also called FcγRIIB; CD32B
T5 sequence (looked up): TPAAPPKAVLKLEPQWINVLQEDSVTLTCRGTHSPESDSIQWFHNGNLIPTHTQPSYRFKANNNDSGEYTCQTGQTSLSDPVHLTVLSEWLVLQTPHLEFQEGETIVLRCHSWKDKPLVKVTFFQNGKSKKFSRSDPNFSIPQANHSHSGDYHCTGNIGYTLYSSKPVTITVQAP
Briefly: BLI. The procedure, abridged: as §1

Experiment [6] has as its target T6, human FcRIIIB protein (MednaBio, E1037) (human, UniProt O75015 17-200).
T6 construct: Bought; also called FcγRIIIB; FcgRIIIB
Put plainly: BLI. Summed up: as §1

In experiment [7] the target is T7, human FcRIIIA-F158 protein (MednaBio, E1036) (human, UniProt P08637 17-208).
T7 construct: Bought; also called FcγRIIIA(F)
Briefly: BLI. Summed up:
as §1

Experiment [8] addresses T8, human FcRIIA protein (MednaBio, E1033) (human, UniProt P12318 34-218, limits assumed).
T8 construct: Bought; also called FcγRIIA
T8 sequence (looked up): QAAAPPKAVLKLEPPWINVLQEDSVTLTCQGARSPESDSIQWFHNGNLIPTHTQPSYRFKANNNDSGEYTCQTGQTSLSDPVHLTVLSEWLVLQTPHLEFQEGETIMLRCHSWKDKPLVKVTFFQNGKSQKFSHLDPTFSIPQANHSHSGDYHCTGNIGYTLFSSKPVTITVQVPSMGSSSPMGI
Briefly: BLI. Summed up: as §1

Experiment [9] addresses T2, human FcRI protein (MednaBio, E1031). Briefly: BLI. Summed up:
as §1
The source holds these as a separate data set.

Experiment [10] deals with T3, human FcRIIIA-V158 protein (MednaBio, …). Put plainly: BLI. The procedure, abridged: as §1
The source holds these as a separate data set.

Experiment [11] has as its target T4, human FcRn protein (MednaBio, E1032). Put plainly: BLI. The procedure, abridged: as §1
This is another data set of the same source.

Experiment [12] has as its target T5, human FcRIIB/C protein (MednaBio, E1034). Briefly: BLI. Summed up: as §1
This is another data set of the same source.

Experiment [13] deals with T6, human FcRIIIB protein (MednaBio, E1037). Put plainly: BLI. Summed up: as §1
The source holds these as a separate data set.

For experiment [14], the target named is T7, human FcRIIIA-F158 protein (MednaBio, …). Briefly: BLI. The procedure, abridged:
as §1
The source holds these as a separate data set.

Experiment [15] deals with T8, human FcRIIA protein (MednaBio, E1033). Briefly: BLI. The procedure, abridged:
as §1
This is another data set of the same source.

Like-named read-outs stand apart in the source and are kept apart here.

T3 sequence (P08637 17-208 F176V): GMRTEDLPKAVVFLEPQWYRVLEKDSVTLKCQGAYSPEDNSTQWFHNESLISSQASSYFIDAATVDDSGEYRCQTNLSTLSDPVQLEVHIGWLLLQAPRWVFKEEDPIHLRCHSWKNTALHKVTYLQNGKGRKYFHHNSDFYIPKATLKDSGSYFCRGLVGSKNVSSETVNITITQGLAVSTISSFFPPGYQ
T7 sequence (P08637 17-208 limits assumed): as the sequence (P08637 17-208 F176V) above, with V160F counted along it
T4 sequence (P55899 24-297 limits assumed, form in doubt, chain 1 of 2): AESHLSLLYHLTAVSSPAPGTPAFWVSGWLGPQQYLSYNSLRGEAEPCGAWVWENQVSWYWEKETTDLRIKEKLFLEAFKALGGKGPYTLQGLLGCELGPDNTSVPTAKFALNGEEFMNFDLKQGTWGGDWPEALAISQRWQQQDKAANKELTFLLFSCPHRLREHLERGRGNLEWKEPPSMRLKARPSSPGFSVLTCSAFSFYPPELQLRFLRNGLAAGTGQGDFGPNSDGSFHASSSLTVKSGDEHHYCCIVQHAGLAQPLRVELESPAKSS
T4 sequence (P61769 21-119 limits assumed, form in doubt, chain 2 of 2): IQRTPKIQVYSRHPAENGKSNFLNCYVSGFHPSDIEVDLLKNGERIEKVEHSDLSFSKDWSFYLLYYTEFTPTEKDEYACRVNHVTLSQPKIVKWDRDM
T2 sequence (P12314 16-288 limits assumed): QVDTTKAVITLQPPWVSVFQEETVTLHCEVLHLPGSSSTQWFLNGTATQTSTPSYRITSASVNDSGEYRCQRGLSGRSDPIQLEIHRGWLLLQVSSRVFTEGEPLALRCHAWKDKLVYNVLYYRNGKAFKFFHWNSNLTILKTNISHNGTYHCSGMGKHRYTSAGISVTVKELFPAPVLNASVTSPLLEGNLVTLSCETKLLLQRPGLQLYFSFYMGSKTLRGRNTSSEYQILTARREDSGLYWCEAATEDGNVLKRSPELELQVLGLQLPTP
T6 sequence (O75015 17-200 limits assumed): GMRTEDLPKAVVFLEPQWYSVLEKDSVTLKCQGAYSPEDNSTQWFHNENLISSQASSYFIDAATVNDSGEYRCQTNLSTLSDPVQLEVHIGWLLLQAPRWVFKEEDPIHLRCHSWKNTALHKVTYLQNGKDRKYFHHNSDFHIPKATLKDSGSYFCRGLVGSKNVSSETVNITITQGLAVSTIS

B1: anti-CD137 IgG1 with Fc variant G1m5 (antibody)
heavy: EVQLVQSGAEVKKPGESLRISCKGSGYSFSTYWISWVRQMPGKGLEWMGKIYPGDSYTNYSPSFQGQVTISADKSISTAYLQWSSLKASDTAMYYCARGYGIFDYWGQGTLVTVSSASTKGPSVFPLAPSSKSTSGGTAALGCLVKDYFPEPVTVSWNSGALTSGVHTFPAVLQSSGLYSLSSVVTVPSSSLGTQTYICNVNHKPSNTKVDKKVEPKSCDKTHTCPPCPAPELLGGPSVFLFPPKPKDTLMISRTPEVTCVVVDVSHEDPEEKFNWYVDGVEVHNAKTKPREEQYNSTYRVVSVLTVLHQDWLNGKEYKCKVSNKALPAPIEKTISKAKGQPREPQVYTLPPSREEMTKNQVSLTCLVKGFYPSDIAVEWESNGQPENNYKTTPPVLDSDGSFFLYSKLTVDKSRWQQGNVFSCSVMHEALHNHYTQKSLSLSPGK
light: SYELTQPPSVSVSPGQTASITCSGDNIGDQYAHWYQQKPGQSPVLVIYQDKNRPSGIPERFSGSNSGNTATLTISGTQAMDEADYYCATYTGFGSLAVFGGGTKLTVLGQPKAAPSVTLFPPSSEELQANKATLVCLISDFYPGAVTVAWKADSSPVKAGVETTTPSKQSNNKYAASSYLSLTPEQWKSHRSYSCQVTHEGSTVEKTVAPTECS
notes: copies: 2 + 2
A word on the Kd: it is a measure of binding affinity in units of concentration. Lower therefore signals a tighter complex. As a reminder, the koff is the rate constant with which the complex falls apart. As usually defined, the kon is a measure of how fast the partners come together. A high value points to faster complex formation. On to B1, for which the binding result in experiment [1] is on record as “binds”; in experiment [6], “no binding (tested: 300 nM)”; in [7], “no binding (tested: 300 nM)”. Also, the dissociation constant (Kd) in experiment [2] was found to be 1.6 nM; in [3], 290 nM; in [4] it was 22 nM; in [5], 640 nM; in experiment [8], 670 nM. In addition, the koff in experiment [2] amounted to 0.00047 s⁻¹; in experiment [3] it was 0.073 s⁻¹; in experiment [4] it was 0.0077 s⁻¹; in [5], 0.18 s⁻¹; in experiment [8], 0.23 s⁻¹. Moreover, the on-rate constant (kon) worked out at 300000 M⁻¹ s⁻¹ in experiment [2]; 250000 M⁻¹ s⁻¹ in experiment [3]; 350000 M⁻¹ s⁻¹ in experiment [4]; 280000 M⁻¹ s⁻¹ in experiment [5]; 340000 M⁻¹ s⁻¹ in experiment [8].

B2: anti-CD137 IgG1 with Fc variant G1m7 (antibody)
heavy: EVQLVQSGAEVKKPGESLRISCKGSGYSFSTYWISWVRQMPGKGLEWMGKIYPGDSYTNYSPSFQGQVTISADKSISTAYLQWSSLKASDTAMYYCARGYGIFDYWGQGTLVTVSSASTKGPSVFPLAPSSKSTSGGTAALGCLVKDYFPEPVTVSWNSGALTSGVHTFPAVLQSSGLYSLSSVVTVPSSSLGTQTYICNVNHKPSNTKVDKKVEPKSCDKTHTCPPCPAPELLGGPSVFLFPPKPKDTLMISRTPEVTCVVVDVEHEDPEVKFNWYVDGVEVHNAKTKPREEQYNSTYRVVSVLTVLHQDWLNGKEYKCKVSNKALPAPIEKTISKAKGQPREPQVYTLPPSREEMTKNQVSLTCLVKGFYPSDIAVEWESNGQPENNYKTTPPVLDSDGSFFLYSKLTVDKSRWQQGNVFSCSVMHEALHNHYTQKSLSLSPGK
light: SYELTQPPSVSVSPGQTASITCSGDNIGDQYAHWYQQKPGQSPVLVIYQDKNRPSGIPERFSGSNSGNTATLTISGTQAMDEADYYCATYTGFGSLAVFGGGTKLTVLGQPKAAPSVTLFPPSSEELQANKATLVCLISDFYPGAVTVAWKADSSPVKAGVETTTPSKQSNNKYAASSYLSLTPEQWKSHRSYSCQVTHEGSTVEKTVAPTECS
notes: copies: 2 + 2
Regarding B2, the binding result in [1] is on record as “binds”; in experiment [6], “no binding (tested: 300 nM)”. Further, the Kd in [2] turned out to be 2.5 nM; in [3], 87 nM; in experiment [4], 15 nM; in [5], 110 nM; in experiment [7], 140 nM; in [8] it was 290 nM. The koff in [2] came out at 0.0016 s⁻¹; in experiment [3] it was 0.039 s⁻¹; in [4], 0.01 s⁻¹; in [5], 0.032 s⁻¹; in experiment [7], 0.05 s⁻¹; in [8], 0.11 s⁻¹. For the same molecule, the kon in experiment [2] was found to be 630000 M⁻¹ s⁻¹; in experiment [3] it was 440000 M⁻¹ s⁻¹; in [4], 670000 M⁻¹ s⁻¹; in [5], 280000 M⁻¹ s⁻¹; in [7], 350000 M⁻¹ s⁻¹; in experiment [8], 380000 M⁻¹ s⁻¹.

B3: anti-CD137 IgG1 with Fc variant G1m29 (antibody)
heavy: EVQLVQSGAEVKKPGESLRISCKGSGYSFSTYWISWVRQMPGKGLEWMGKIYPGDSYTNYSPSFQGQVTISADKSISTAYLQWSSLKASDTAMYYCARGYGIFDYWGQGTLVTVSSASTKGPSVFPLAPSSKSTSGGTAALGCLVKDYFPEPVTVSWNSGALTSGVHTFPAVLQSSGLYSLSSVVTVPSSSLGTQTYICNVNHKPSNTKVDKKVEPKSCDKTHTCPPCPAPELLGPSVFLFPPKPKDTLMISRTPEVTCVVVDVEHEDPEVKFNWYVDGVEVHNAKTKPREEQYNSTYRVVSVLTVLHQDWLNGKEYKCKVSNKAFPAPIEKTISKAKGQPREPQVYTLPPSREEMTKNQVSLTCLVKGFYPSDIAVEWESNGQPENNYKTTPPVLDSDGSFFLYSKLTVDKSRWQQGNVFSCSVMHEALHNHYTQKSLSLSPGK
light: SYELTQPPSVSVSPGQTASITCSGDNIGDQYAHWYQQKPGQSPVLVIYQDKNRPSGIPERFSGSNSGNTATLTISGTQAMDEADYYCATYTGFGSLAVFGGGTKLTVLGQPKAAPSVTLFPPSSEELQANKATLVCLISDFYPGAVTVAWKADSSPVKAGVETTTPSKQSNNKYAASSYLSLTPEQWKSHRSYSCQVTHEGSTVEKTVAPTECS
notes: copies: 2 + 2
Regarding B3, the equilibrium dissociation constant (Kd) in experiment [9] came out at 37 nM; in [11] it was 17 nM; in experiment [12] it was 46 nM; in experiment [15] it was 530 nM. Also, the koff in experiment [9] was 0.0098 s⁻¹; in experiment [11], 0.013 s⁻¹; in [12], 0.011 s⁻¹; in [15], 0.14 s⁻¹. Also, the kon in [9] is 260000 M⁻¹ s⁻¹; in experiment [11] it was 760000 M⁻¹ s⁻¹; in experiment [12], 250000 M⁻¹ s⁻¹; in experiment [15], 260000 M⁻¹ s⁻¹. Also, the binding result in experiment [10], in [13] and in experiment [14] was “no binding (tested: 300 nM)” each time.

B4: anti-CD137 IgG1 with Fc variant G1m8 (antibody)
heavy: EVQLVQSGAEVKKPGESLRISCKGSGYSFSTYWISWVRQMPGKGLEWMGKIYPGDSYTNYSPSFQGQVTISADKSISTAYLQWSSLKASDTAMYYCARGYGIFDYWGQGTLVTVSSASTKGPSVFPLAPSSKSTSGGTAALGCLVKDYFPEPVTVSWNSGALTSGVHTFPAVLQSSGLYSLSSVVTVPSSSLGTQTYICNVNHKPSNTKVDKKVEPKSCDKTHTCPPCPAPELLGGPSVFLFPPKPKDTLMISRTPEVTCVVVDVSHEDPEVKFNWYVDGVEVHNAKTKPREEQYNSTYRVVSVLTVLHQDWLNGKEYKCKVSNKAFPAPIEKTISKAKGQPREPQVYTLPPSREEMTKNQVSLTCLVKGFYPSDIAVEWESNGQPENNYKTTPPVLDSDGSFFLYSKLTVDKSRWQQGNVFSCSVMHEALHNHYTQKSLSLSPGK
light: SYELTQPPSVSVSPGQTASITCSGDNIGDQYAHWYQQKPGQSPVLVIYQDKNRPSGIPERFSGSNSGNTATLTISGTQAMDEADYYCATYTGFGSLAVFGGGTKLTVLGQPKAAPSVTLFPPSSEELQANKATLVCLISDFYPGAVTVAWKADSSPVKAGVETTTPSKQSNNKYAASSYLSLTPEQWKSHRSYSCQVTHEGSTVEKTVAPTECS
notes: copies: 2 + 2
With B4, the values for the binding result in experiment [1] and in experiment [6] were “binds” and “no binding (tested: 300 nM)”, respectively. Besides, the Kd turned out to be 2.5 nM in experiment [2]; 230 nM in [3]; 16.5 nM in experiment [4]; 420 nM in [5]; 260 nM in experiment [7]; 270 nM in experiment [8]. Also, the koff in experiment [2] is 0.0016 s⁻¹; in [3] it was 0.074 s⁻¹; in experiment [4], 0.0111 s⁻¹; in experiment [5], 0.11 s⁻¹; in experiment [7] it was 0.057 s⁻¹; in experiment [8], 0.17 s⁻¹. Moreover, the on-rate (kon) in experiment [2] came to 630000 M⁻¹ s⁻¹; in experiment [3], 320000 M⁻¹ s⁻¹; in experiment [4], 673000 M⁻¹ s⁻¹; in experiment [5] it was 270000 M⁻¹ s⁻¹; in experiment [7], 220000 M⁻¹ s⁻¹; in experiment [8], 610000 M⁻¹ s⁻¹.
